From publication PMC2929994 (Molecular Biology of the Cell, 2010)
Where two headings read alike, the source gives them in different places.

Legend:
Experiment in all cases: split reporter
[1] = molecular target: Rsr1 GTPase, split-YFP fusion for BiFC (YFP^N-Rsr1 / YFP^C-Rsr1) (S. cerevisiae) (UniProt P13856)
[2] = molecular target: Rsr1 GTPase, split-YFP fusion for BiFC (YFP^N-Rsr1 / YFP^C-Rsr1) (S. cerevisiae) (UniProt P13856); remark: listed apart in the source
[3] = molecular target: the molecule itself

| Molecule | percent of unbudded cells with BiFC signal [1] [%] | percent of unbudded cells with BiFC signal [2] [%] | percent of unbudded cells with BiFC signal [3] [%] |
| --- | --- | --- | --- |
| Rsr1-7^K260–264S, split-YFP fusion for BiFC (from UniProt P13856 1-272) (natural protein) | < 2 | 1.7 |  |
| Rsr1^K16N, split-YFP fusion for BiFC (natural protein, S. cerevisiae, UniProt P13856 1-272, looked up) MRDYKLVVLGAGGVGNSCLTVQFVQGVYLDTYDPTIEDSYRKTIEIDNKVFDLEILDTAGIAQFTAMRELYIKSGMGFLLVYSVTDRQSLEELMELREQVLRIKDSDRVPMVLIGNKADLINERVISVEEGIEVSSKWGRVPFYETSALLRSNVDEVFVDLVRQIIRNEMESVAVKDARNQSQQFSKIESPSTRLPSSAKQDTKQSNNKQSSKGLYNKSSQGQAKVKQSTPVNEKHKPSHAVPKSGSSNRTGISATSQQKKKKKNASTCTIL |  |  | 84 |
